From paper PMC10786891, “Massively parallel profiling of RNA-targeting CRISPR-Cas13d” come the findings set out here.

T1: EsCas13d, nuclease-dead (Eubacterium siraeum, UniProt B0MS50, R295A;H300A;R849A;H854A)
T1 sequence: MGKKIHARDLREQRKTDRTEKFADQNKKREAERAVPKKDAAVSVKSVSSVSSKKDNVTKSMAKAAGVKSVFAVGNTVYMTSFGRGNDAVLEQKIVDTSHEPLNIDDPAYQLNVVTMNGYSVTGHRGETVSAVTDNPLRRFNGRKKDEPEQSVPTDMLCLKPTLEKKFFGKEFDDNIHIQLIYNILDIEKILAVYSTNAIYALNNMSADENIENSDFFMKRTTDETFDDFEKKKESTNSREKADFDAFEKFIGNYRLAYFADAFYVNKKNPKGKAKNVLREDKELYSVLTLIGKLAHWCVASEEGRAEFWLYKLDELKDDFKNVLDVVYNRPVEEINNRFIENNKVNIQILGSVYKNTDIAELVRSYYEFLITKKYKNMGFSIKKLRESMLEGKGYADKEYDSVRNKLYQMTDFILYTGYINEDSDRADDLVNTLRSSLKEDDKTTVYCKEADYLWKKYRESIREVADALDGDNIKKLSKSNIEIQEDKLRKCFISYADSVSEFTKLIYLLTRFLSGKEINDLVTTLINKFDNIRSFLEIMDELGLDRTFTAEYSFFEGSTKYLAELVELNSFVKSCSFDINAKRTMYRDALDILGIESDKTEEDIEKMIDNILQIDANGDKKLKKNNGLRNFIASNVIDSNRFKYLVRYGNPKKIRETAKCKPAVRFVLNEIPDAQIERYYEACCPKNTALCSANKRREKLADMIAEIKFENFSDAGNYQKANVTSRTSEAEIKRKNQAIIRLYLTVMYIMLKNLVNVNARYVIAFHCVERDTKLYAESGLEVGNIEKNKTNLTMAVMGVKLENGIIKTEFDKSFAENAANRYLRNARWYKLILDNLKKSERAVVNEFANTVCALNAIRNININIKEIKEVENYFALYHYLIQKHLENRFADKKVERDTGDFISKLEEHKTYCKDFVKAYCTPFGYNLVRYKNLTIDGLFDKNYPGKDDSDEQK

B1: target 3 U2A,G4A (mixed)
RNA 1: CACCCGUGCAAAAUUGCAGGGGUCUAAAACGACCUGAAUAUUUCAGAUCAAA
RNA 2: GGGAAUGGAUCCACAUCUACGAAUUCGUUUUUGAUCUGAAAUAUUCAAGACUGCAGAUCGGAAGAGCACACGU
B2: target 3 insA 3' of 3,insG 3' of 1 (mixed)
RNA 1: CACCCGUGCAAAAUUGCAGGGGUCUAAAACGACCUGAAUAUUUCAGAUCAAA
RNA 2: GGGAAUGGAUCCACAUCUACGAAUUCGUUUUUGAUCUGAAAUAUUCAGGAUCGUGCAGAUCGGAAGAGCACACGU
B3: target 3 insU 3' of 6,insU 3' of 3 (mixed)
RNA 1: CACCCGUGCAAAAUUGCAGGGGUCUAAAACGACCUGAAUAUUUCAGAUCAAA
RNA 2: GGGAAUGGAUCCACAUCUACGAAUUCGUUUUUGAUCUGAAAUAUUCUAGGUUCUGCAGAUCGGAAGAGCACACGU
B4: target 3 C6U,A13G (mixed)
RNA 1: CACCCGUGCAAAAUUGCAGGGGUCUAAAACGACCUGAAUAUUUCAGAUCAAA
RNA 2: GGGAAUGGAUCCACAUCUACGAAUUCGUUUUUGAUCUGGAAUAUUUAGGUCUGCAGAUCGGAAGAGCACACGU
B5: target 3 C1G,G4C (mixed)
RNA 1: CACCCGUGCAAAAUUGCAGGGGUCUAAAACGACCUGAAUAUUUCAGAUCAAA
RNA 2: GGGAAUGGAUCCACAUCUACGAAUUCGUUUUUGAUCUGAAAUAUUCACGUGUGCAGAUCGGAAGAGCACACGU
B6: target 3 insG 3' of 22,insA 3' of 22 (mixed)
RNA 1: CACCCGUGCAAAAUUGCAGGGGUCUAAAACGACCUGAAUAUUUCAGAUCAAA
RNA 2: GGGAAUGGAUCCACAUCUACGAAUUCGUUUGAUUGAUCUGAAAUAUUCAGGUCUGCAGAUCGGAAGAGCACACGU
B7: target 3 U7G,U8A (mixed)
RNA 1: CACCCGUGCAAAAUUGCAGGGGUCUAAAACGACCUGAAUAUUUCAGAUCAAA
RNA 2: GGGAAUGGAUCCACAUCUACGAAUUCGUUUUUGAUCUGAAAUAAGCAGGUCUGCAGAUCGGAAGAGCACACGU
B8: target 3 del2,del5 (mixed)
RNA 1: CACCCGUGCAAAAUUGCAGGGGUCUAAAACGACCUGAAUAUUUCAGAUCAAA
RNA 2: GGGAAUGGAUCCACAUCUACGAAUUCGUUUUUGAUCUGAAAUAUUCGGCUGCAGAUCGGAAGAGCACACGU
B9: target 3 A5U,C6G (mixed)
RNA 1: CACCCGUGCAAAAUUGCAGGGGUCUAAAACGACCUGAAUAUUUCAGAUCAAA
RNA 2: GGGAAUGGAUCCACAUCUACGAAUUCGUUUUUGAUCUGAAAUAUUGUGGUCUGCAGAUCGGAAGAGCACACGU
B10: target 3 insC 3' of 5,insC 3' of 2 (mixed)
RNA 1: CACCCGUGCAAAAUUGCAGGGGUCUAAAACGACCUGAAUAUUUCAGAUCAAA
RNA 2: GGGAAUGGAUCCACAUCUACGAAUUCGUUUUUGAUCUGAAAUAUUCACGGUCCUGCAGAUCGGAAGAGCACACGU
B11: target 3 C1U,U7A (mixed)
RNA 1: CACCCGUGCAAAAUUGCAGGGGUCUAAAACGACCUGAAUAUUUCAGAUCAAA
RNA 2: GGGAAUGGAUCCACAUCUACGAAUUCGUUUUUGAUCUGAAAUAUACAGGUUUGCAGAUCGGAAGAGCACACGU
B12: target 3 insU 3' of 4,insA 3' of 4 (mixed)
RNA 1: CACCCGUGCAAAAUUGCAGGGGUCUAAAACGACCUGAAUAUUUCAGAUCAAA
RNA 2: GGGAAUGGAUCCACAUCUACGAAUUCGUUUUUGAUCUGAAAUAUUCAGUAGUCUGCAGAUCGGAAGAGCACACGU
B13: target 3 U7A (mixed)
RNA 1: CACCCGUGCAAAAUUGCAGGGGUCUAAAACGACCUGAAUAUUUCAGAUCAAA
RNA 2: GGGAAUGGAUCCACAUCUACGAAUUCGUUUUUGAUCUGAAAUAUACAGGUCUGCAGAUCGGAAGAGCACACGU
B14: target 3 G3C,C6G (mixed)
RNA 1: CACCCGUGCAAAAUUGCAGGGGUCUAAAACGACCUGAAUAUUUCAGAUCAAA
RNA 2: GGGAAUGGAUCCACAUCUACGAAUUCGUUUUUGAUCUGAAAUAUUGAGCUCUGCAGAUCGGAAGAGCACACGU
B15: target 3 insA 3' of 21,insC 3' of 4 (mixed)
RNA 1: CACCCGUGCAAAAUUGCAGGGGUCUAAAACGACCUGAAUAUUUCAGAUCAAA
RNA 2: GGGAAUGGAUCCACAUCUACGAAUUCGUUUUAUGAUCUGAAAUAUUCAGCGUCUGCAGAUCGGAAGAGCACACGU
B16: target 3 C1G,U7A (mixed)
RNA 1: CACCCGUGCAAAAUUGCAGGGGUCUAAAACGACCUGAAUAUUUCAGAUCAAA
RNA 2: GGGAAUGGAUCCACAUCUACGAAUUCGUUUUUGAUCUGAAAUAUACAGGUGUGCAGAUCGGAAGAGCACACGU
B17: target 3 G19U,U20G (mixed)
RNA 1: CACCCGUGCAAAAUUGCAGGGGUCUAAAACGACCUGAAUAUUUCAGAUCAAA
RNA 2: GGGAAUGGAUCCACAUCUACGAAUUCGUUUUGUAUCUGAAAUAUUCAGGUCUGCAGAUCGGAAGAGCACACGU
B18: target 3 insU 3' of 22,insA 3' of 3 (mixed)
RNA 1: CACCCGUGCAAAAUUGCAGGGGUCUAAAACGACCUGAAUAUUUCAGAUCAAA
RNA 2: GGGAAUGGAUCCACAUCUACGAAUUCGUUUUUUGAUCUGAAAUAUUCAGGAUCUGCAGAUCGGAAGAGCACACGU
B19: target 3 C6A,U7C (mixed)
RNA 1: CACCCGUGCAAAAUUGCAGGGGUCUAAAACGACCUGAAUAUUUCAGAUCAAA
RNA 2: GGGAAUGGAUCCACAUCUACGAAUUCGUUUUUGAUCUGAAAUAUCAAGGUCUGCAGAUCGGAAGAGCACACGU
B20: target 3 insA 3' of 21,insU 3' of 3 (mixed)
RNA 1: CACCCGUGCAAAAUUGCAGGGGUCUAAAACGACCUGAAUAUUUCAGAUCAAA
RNA 2: GGGAAUGGAUCCACAUCUACGAAUUCGUUUUAUGAUCUGAAAUAUUCAGGUUCUGCAGAUCGGAAGAGCACACGU
B21: target 3 insG 3' of 6,insC 3' of 3 (mixed)
RNA 1: CACCCGUGCAAAAUUGCAGGGGUCUAAAACGACCUGAAUAUUUCAGAUCAAA
RNA 2: GGGAAUGGAUCCACAUCUACGAAUUCGUUUUUGAUCUGAAAUAUUCGAGGCUCUGCAGAUCGGAAGAGCACACGU
B22: target 3 A9G (mixed)
RNA 1: CACCCGUGCAAAAUUGCAGGGGUCUAAAACGACCUGAAUAUUUCAGAUCAAA
RNA 2: GGGAAUGGAUCCACAUCUACGAAUUCGUUUUUGAUCUGAAAUGUUCAGGUCUGCAGAUCGGAAGAGCACACGU
B23: target 3 G4U,A18G (mixed)
RNA 1: CACCCGUGCAAAAUUGCAGGGGUCUAAAACGACCUGAAUAUUUCAGAUCAAA
RNA 2: GGGAAUGGAUCCACAUCUACGAAUUCGUUUUUGGUCUGAAAUAUUCAUGUCUGCAGAUCGGAAGAGCACACGU
B24: target 3 G4C (mixed)
RNA 1: CACCCGUGCAAAAUUGCAGGGGUCUAAAACGACCUGAAUAUUUCAGAUCAAA
RNA 2: GGGAAUGGAUCCACAUCUACGAAUUCGUUUUUGAUCUGAAAUAUUCACGUCUGCAGAUCGGAAGAGCACACGU
B25: target 3 insC 3' of 9,insC 3' of 4 (mixed)
RNA 1: CACCCGUGCAAAAUUGCAGGGGUCUAAAACGACCUGAAUAUUUCAGAUCAAA
RNA 2: GGGAAUGGAUCCACAUCUACGAAUUCGUUUUUGAUCUGAAAUACUUCAGCGUCUGCAGAUCGGAAGAGCACACGU
B26: target 1 insC 3' of 18,insC 3' of 1 (mixed)
RNA 1: CACCCGUGCAAAAAUGCAGGGGUCUAAAACUGAGCGGAUAACCUCUCUAUGG
RNA 2: GGGAAUGGAUCCACAUCUACGAAUUCGUACCAUACGAGAGGUUAUCCGCUCACCCGAGAUCGGAAGAGCACACGU
B27: target 1 C2A,C6G (mixed)
RNA 1: CACCCGUGCAAAAAUGCAGGGGUCUAAAACUGAGCGGAUAACCUCUCUAUGG
RNA 2: GGGAAUGGAUCCACAUCUACGAAUUCGUACCAUAGAGAGGUUAUCGGCUAACCGAGAUCGGAAGAGCACACGU

The data set deals with T1, EsCas13d, nuclease-dead. As to the kind of experiment: crRNA (strand 1, pre-loaded); Mg2+; 40 mM Tris-HCl pH 7.5, 150 mM NaCl, 6 mM MgCl2, 1 mM DTT, 0.1% Tween-20, 0.2 mg/ml BSA; 25 C; 10 min per concentration, then washed. Particulars: tags: His6-TwinStrep-SUMO cleaved; N-terminal SNAP kept (SNAP-Surface 488); label: 3' end held by stalled T7 RNA polymerase.
On to B1, for which binding was put at a Kd of 3.11 ± 0.33 nM.

B2 returned a Kd of 52 ± 11 nM. This Kd is about 17-fold higher than that of the molecule before.

Consider B3, for which binding was characterised by a dissociation constant (Kd) of 12.9 ± 2 nM.

In the case of B4, the Kd came out at 34 ± 6 nM. This Kd lies about 2.6-fold higher than the previous one.

In turn, B5 registered a dissociation constant (Kd) of 16.8 ± 3.25 nM. Compared with the last molecule, the Kd is about 2-fold lower.

On to B6, for which the Kd stood at 41.5 ± 4.5 nM. Compared with the last molecule, the Kd is about 2.5-fold higher.

As for B7, binding was put at a Kd of 67 ± 12 nM.

On to B8, for which the Kd is 5.35 ± 0.45 nM.

Molecule B9 came in with a dissociation constant (Kd) of 39 ± 4.5 nM.

Turning to B10, the equilibrium dissociation constant (Kd) amounted to 9.9 ± 1.35 nM.

In turn, B11 gave a Kd of 36.5 ± 15.5 nM.

In turn, B12 displayed a Kd of 22.9 ± 3.25 nM.

B13: binding was put at a Kd of 27.8 ± 3.6 nM.

The molecule B14 yielded a dissociation constant Kd of 34.2 ± 4.7 nM.

On to B15, for which the affinity, expressed as Kd, was 50.5 ± 15.5 nM.

The molecule B16 yielded a Kd of 15.3 ± 4.1 nM. Compared with the last molecule, the Kd is about 3.3-fold lower.

Take B17: the Kd stood at 33.5 ± 7 nM.

The molecule B18 came in with a dissociation constant (Kd) of 22.1 ± 2.4 nM. This Kd is about 1.5-fold lower than that of the molecule before.

For the molecule B19, the equilibrium dissociation constant (Kd) is 69 ± 9.5 nM.

For B20, the Kd came out at 46.3 ± 13.7 nM.

For B21, the equilibrium dissociation constant (Kd) is 17.5 ± 1.3 nM.

The molecule B22 returned a Kd of 29.1 ± 2.85 nM.

Molecule B23 yielded a Kd of 9.75 ± 1.45 nM.

Molecule B24 gave a Kd of 10.7 ± 1 nM.

B25 registered a Kd of 87.5 ± 28 nM. This Kd is about 8.2-fold higher than that of the molecule before.

In turn, B26 had a Kd of 29 ± 5 nM.

As for B27, the Kd came out at 6.03 ± 0.34 nM.
